Experimental data as given in the supplement of paper PMC9112550, “Optimization of the antimicrobial peptide Bac7 by deep mutational scanning” (BMC Biology, 2022).

System: Escherichia coli TOP10
Test: shrunken log2 fold change of peptide-encoding DNA abundance (4.5 h post-induction vs induction); higher = less antimicrobial activity (less host growth inhibition)
Details: time post-induction: 4.5 h; library: site-saturation at positions 5, 18, 19, 20
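Also: peptides expressed intracellularly from a pBAD plasmid library in pooled LB shake-flask culture, induced with 0.3% L-arabinose, DNA abundance read by NGS, three biological replicates, DESeq2 with apeglm shrinkage.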

| Sequence | shrunken log2 fold change |
| --- | --- |
| RRIRMRPPRLPRPRPRPTVEPRP | 3.68 |
| RRIRPRPPRLPRPRPRPFRSPRP | -0.152 |
| RRIRVRPPRLPRPRPRPSSNPRP | -0.375 |
| RRIRARPPRLPRPRPRPWRKPRP | 0.0387 |
| RRIRRRPPRLPRPRPRPNQHPRP | 0.00413 |
| RRIRHRPPRLPRPRPRPPSAPRP | 0.496 |
| RRIRTRPPRLPRPRPRPYRHPRP | -0.0901 |
| RRIRYRPPRLPRPRPRPCMDPRP | -0.214 |
| RRIRRRPPRLPRPRPRPLSPPRP | 0.411 |
| RRIRPRPPRLPRPRPRPDLRPRP | -0.124 |
| RRIRQRPPRLPRPRPRPRTHPRP | 0.167 |
| RRIRARPPRLPRPRPRPYQDPRP | -0.00221 |
| RRIRARPPRLPRPRPRPHCMPRP | 0.19 |
| RRIRERPPRLPRPRPRPTCVPRP | -0.0193 |
| RRIRPRPPRLPRPRPRPCDHPRP | -0.128 |
| RRIRPRPPRLPRPRPRPRVTPRP | 0.326 |
| RRIRIRPPRLPRPRPRPWLQPRP | 0.0391 |
| RRIRGRPPRLPRPRPRPKLTPRP | 0.808 |
| RRIRMRPPRLPRPRPRPEHSPRP | 0.234 |
| RRIRDRPPRLPRPRPRPDSNPRP | 0.205 |
| RRIRFRPPRLPRPRPRPGWGPRP | 0.076 |
| RRIRERPPRLPRPRPRPRCTPRP | -0.0287 |
| RRIRERPPRLPRPRPRPPMEPRP | -0.0809 |
| RRIRYRPPRLPRPRPRPILYPRP | -0.679 |
| RRIRWRPPRLPRPRPRPYVDPRP | -0.171 |

| Sequence | shrunken log2 fold change |
| --- | --- |
| RRIRMRPPRLPRPRPRPDISPRP | -0.0568 |
| RRIRARPPRLPRPRPRPVTNPRP | 0.275 |
| RRIRSRPPRLPRPRPRPCFCPRP | -0.489 |
| RRIRPRPPRLPRPRPRPSAYPRP | -0.386 |
| RRIRERPPRLPRPRPRPAHEPRP | 0.0932 |
| RRIRCRPPRLPRPRPRPPRAPRP | 0.934 |
| RRIRVRPPRLPRPRPRPRSWPRP | 0.325 |
| RRIRFRPPRLPRPRPRPKYWPRP | -0.176 |
| RRIRCRPPRLPRPRPRPLYEPRP | -0.43 |
| RRIRVRPPRLPRPRPRPQIHPRP | -1.01 |
| RRIRWRPPRLPRPRPRPFNRPRP | -0.0167 |
| RRIRERPPRLPRPRPRPRESPRP | -0.329 |
| RRIRRRPPRLPRPRPRPTRDPRP | 0.64 |
| RRIRPRPPRLPRPRPRPRVVPRP | 0.341 |
| RRIRRRPPRLPRPRPRPFWKPRP | 0.111 |
| RRIRGRPPRLPRPRPRPGPVPRP | 1.24 |
| RRIRQRPPRLPRPRPRPGQIPRP | -0.226 |
| RRIRRRPPRLPRPRPRPLMIPRP | -0.258 |
| RRIRFRPPRLPRPRPRPKPTPRP | 0.879 |
| RRIRFRPPRLPRPRPRPRARPRP | 0.661 |
| RRIRTRPPRLPRPRPRPYHCPRP | 0.0119 |
| RRIRNRPPRLPRPRPRPDPQPRP | 0.0854 |
| RRIRDRPPRLPRPRPRPVKVPRP | -0.0343 |
| RRIRVRPPRLPRPRPRPSRHPRP | -0.0783 |
| RRIRARPPRLPRPRPRPRTEPRP | 0.391 |

| Sequence | shrunken log2 fold change |
| --- | --- |
| RRIRYRPPRLPRPRPRPASEPRP | -0.0202 |
| RRIRMRPPRLPRPRPRPTCFPRP | 0.105 |
| RRIRMRPPRLPRPRPRPTITPRP | 0.114 |
| RRIRFRPPRLPRPRPRPWKTPRP | -0.0119 |
| RRIRGRPPRLPRPRPRPWWFPRP | -0.03 |
| RRIRRRPPRLPRPRPRPIVPPRP | 0.605 |
| RRIRQRPPRLPRPRPRPATSPRP | 0.0218 |
| RRIRWRPPRLPRPRPRPFAGPRP | 0.0847 |
| RRIRLRPPRLPRPRPRPGCEPRP | 0.409 |
| RRIRSRPPRLPRPRPRPRPFPRP | 0.188 |
| RRIRTRPPRLPRPRPRPCYHPRP | -0.637 |
| RRIRCRPPRLPRPRPRPSNLPRP | -0.425 |
| RRIRVRPPRLPRPRPRPQLVPRP | -0.048 |
| RRIRMRPPRLPRPRPRPTMGPRP | 0.253 |
| RRIRQRPPRLPRPRPRPCVCPRP | -0.0231 |
| RRIRWRPPRLPRPRPRPCCRPRP | 0.174 |
| RRIRTRPPRLPRPRPRPAFYPRP | 0.116 |
| RRIRIRPPRLPRPRPRPWQVPRP | 0.0844 |
| RRIRDRPPRLPRPRPRPHEFPRP | 0.00812 |
| RRIRWRPPRLPRPRPRPHMIPRP | -0.219 |
| RRIRNRPPRLPRPRPRPWMQPRP | -0.218 |
| RRIRQRPPRLPRPRPRPTHEPRP | 0.881 |
| RRIRNRPPRLPRPRPRPITQPRP | -0.187 |
| RRIRERPPRLPRPRPRPMKSPRP | -0.163 |
| RRIRWRPPRLPRPRPRPHDEPRP | -0.2 |

| Sequence | shrunken log2 fold change |
| --- | --- |
| RRIRSRPPRLPRPRPRPHMAPRP | -0.361 |
| RRIRLRPPRLPRPRPRPHQLPRP | -0.25 |
| RRIRRRPPRLPRPRPRPVYNPRP | -0.154 |
| RRIRRRPPRLPRPRPRPAVDPRP | 0.204 |
| RRIRYRPPRLPRPRPRPPLFPRP | -0.0411 |
| RRIRKRPPRLPRPRPRPTWHPRP | 0.371 |
| RRIRIRPPRLPRPRPRPECYPRP | -0.146 |
| RRIRRRPPRLPRPRPRPWMVPRP | -0.151 |
| RRIRSRPPRLPRPRPRPECHPRP | 0.411 |
| RRIRCRPPRLPRPRPRPINWPRP | -0.407 |
| RRIRHRPPRLPRPRPRPGAIPRP | -0.15 |
| RRIRIRPPRLPRPRPRPTQWPRP | -0.136 |
| RRIRERPPRLPRPRPRPQFSPRP | -0.0998 |
| RRIRTRPPRLPRPRPRPYYWPRP | -0.0825 |
| RRIRGRPPRLPRPRPRPPIDPRP | 0.888 |
| RRIRFRPPRLPRPRPRPWRMPRP | -0.166 |
| RRIRTRPPRLPRPRPRPDVSPRP | -0.223 |
| RRIRMRPPRLPRPRPRPRCGPRP | 0.733 |
| RRIRRRPPRLPRPRPRPECIPRP | 0.282 |
| RRIRWRPPRLPRPRPRPCCYPRP | -0.295 |
| RRIRQRPPRLPRPRPRPGNRPRP | -0.0286 |
| RRIRGRPPRLPRPRPRPEDKPRP | 1.23 |
| RRIRCRPPRLPRPRPRPIYFPRP | -0.131 |
| RRIRNRPPRLPRPRPRPVLCPRP | 0.0343 |
| RRIRIRPPRLPRPRPRPLRLPRP | 0.281 |

| Sequence | shrunken log2 fold change |
| --- | --- |
| RRIRWRPPRLPRPRPRPMCRPRP | -0.117 |
| RRIRARPPRLPRPRPRPYPSPRP | -0.0433 |
| RRIRARPPRLPRPRPRPFLIPRP | -0.367 |
| RRIRDRPPRLPRPRPRPRPAPRP | 0.966 |
| RRIRWRPPRLPRPRPRPWYQPRP | -0.179 |
| RRIRARPPRLPRPRPRPDHGPRP | -0.144 |
| RRIRIRPPRLPRPRPRPHIEPRP | -0.0878 |
| RRIRIRPPRLPRPRPRPMDGPRP | -0.108 |
| RRIRCRPPRLPRPRPRPWRYPRP | 0.0621 |
| RRIRPRPPRLPRPRPRPAVFPRP | 0.373 |
| RRIRDRPPRLPRPRPRPRWMPRP | -0.176 |
| RRIRQRPPRLPRPRPRPFILPRP | -0.635 |
| RRIRERPPRLPRPRPRPTWRPRP | 0.268 |
| RRIRYRPPRLPRPRPRPMHGPRP | 0.00652 |
| RRIRERPPRLPRPRPRPSFIPRP | -0.906 |
| RRIRQRPPRLPRPRPRPPIVPRP | -0.015 |
| RRIRARPPRLPRPRPRPWTRPRP | 0.27 |
| RRIRMRPPRLPRPRPRPDVQPRP | -0.00142 |
| RRIRPRPPRLPRPRPRPSKAPRP | -0.175 |
| RRIRMRPPRLPRPRPRPMWFPRP | 0.233 |
| RRIRDRPPRLPRPRPRPNRVPRP | -0.023 |
| RRIRTRPPRLPRPRPRPQVNPRP | -0.587 |
| RRIRPRPPRLPRPRPRPPGGPRP | 0.968 |
| RRIRARPPRLPRPRPRPSHHPRP | -0.309 |
| RRIRCRPPRLPRPRPRPYVRPRP | -0.0787 |

| Sequence | shrunken log2 fold change |
| --- | --- |
| RRIRRRPPRLPRPRPRPGYYPRP | -0.105 |
| RRIRARPPRLPRPRPRPYWSPRP | -0.186 |
| RRIRYRPPRLPRPRPRPSCMPRP | -0.947 |
| RRIRQRPPRLPRPRPRPQFKPRP | -0.0321 |
| RRIRKRPPRLPRPRPRPHTMPRP | 0.205 |
| RRIRPRPPRLPRPRPRPEWCPRP | -0.0771 |
| RRIRSRPPRLPRPRPRPHTNPRP | -0.335 |
| RRIRYRPPRLPRPRPRPETEPRP | 0.0184 |
| RRIRARPPRLPRPRPRPCEYPRP | -0.133 |
| RRIRRRPPRLPRPRPRPSHHPRP | -0.173 |
| RRIRTRPPRLPRPRPRPVLLPRP | -0.127 |
| RRIRSRPPRLPRPRPRPIFVPRP | 0.0197 |
| RRIRARPPRLPRPRPRPGCVPRP | 0.851 |
| RRIRPRPPRLPRPRPRPCKTPRP | 0.106 |
| RRIRLRPPRLPRPRPRPDCIPRP | 0.185 |
| RRIRARPPRLPRPRPRPHLKPRP | 0.01 |
| RRIRARPPRLPRPRPRPYTPPRP | -0.373 |
| RRIRNRPPRLPRPRPRPYFTPRP | -0.47 |
| RRIRVRPPRLPRPRPRPRQVPRP | 0.0645 |
| RRIRLRPPRLPRPRPRPDGVPRP | -0.0786 |
| RRIRRRPPRLPRPRPRPYPIPRP | -0.269 |
| RRIRHRPPRLPRPRPRPDGNPRP | -0.105 |
| RRIRNRPPRLPRPRPRPTKQPRP | -0.102 |
| RRIRHRPPRLPRPRPRPMCLPRP | -0.0755 |
| RRIRHRPPRLPRPRPRPDRVPRP | -0.0183 |
